Reference: patent US20150344583A1

Key:
[1] = biological target: human BCMA (huBCMA) on cells (human) (UniProt Q02223); experiment: FACS, hu BCMA
[2] = biological target: TACI on transiently transfected cells (human) (UniProt O14836); experiment: FACS, hu TACI
[3] = biological target: human BCMA (huBCMA) on cells (human) (UniProt Q02223); experiment: APRIL blocking
[4] = biological target: cynomolgus (Macaca fascicularis) BCMA on cells (cynomolgus (Macaca fascicularis)); experiment: FACS, Cyno BCMA
Chain of cynomolgus (Macaca fascicularis) BCMA on cells (cynomolgus (Macaca fascicularis)) (Q02223 other isoform, or with tags, fused parts or gaps): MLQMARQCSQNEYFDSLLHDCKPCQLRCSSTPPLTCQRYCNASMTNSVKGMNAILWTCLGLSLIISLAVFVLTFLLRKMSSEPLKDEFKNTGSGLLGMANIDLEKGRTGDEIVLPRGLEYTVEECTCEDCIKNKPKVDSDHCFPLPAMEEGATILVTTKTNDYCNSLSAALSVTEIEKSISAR

[5] = biological target: cynomolgus (Macaca fascicularis) BCMA on cells (cynomolgus (Macaca fascicularis)); experiment: CynoBCMA O/N FACS
[6] = biological target: recombinant soluble human BCMA (rhu BCMA), analyte of the Example 2 Biacore assay (human) (UniProt Q02223); experiment: SPR (BIAcore 3000), steady state fit, antibody captured, rhu BCMA as analyte
Chain of recombinant soluble human BCMA (rhu BCMA), analyte of the Example 2 Biacore assay (human) (Q02223 1-54 limits assumed): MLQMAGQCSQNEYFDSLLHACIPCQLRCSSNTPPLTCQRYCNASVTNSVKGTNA

Chain of human BCMA (huBCMA) on cells (human) (Q02223 whole entry N81S): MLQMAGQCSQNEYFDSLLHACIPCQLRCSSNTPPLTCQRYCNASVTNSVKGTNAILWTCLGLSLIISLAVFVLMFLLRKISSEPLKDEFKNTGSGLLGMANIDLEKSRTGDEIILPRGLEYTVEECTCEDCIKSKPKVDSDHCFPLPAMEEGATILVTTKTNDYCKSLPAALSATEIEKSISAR
Chain of TACI on transiently transfected cells (human) (O14836 whole entry): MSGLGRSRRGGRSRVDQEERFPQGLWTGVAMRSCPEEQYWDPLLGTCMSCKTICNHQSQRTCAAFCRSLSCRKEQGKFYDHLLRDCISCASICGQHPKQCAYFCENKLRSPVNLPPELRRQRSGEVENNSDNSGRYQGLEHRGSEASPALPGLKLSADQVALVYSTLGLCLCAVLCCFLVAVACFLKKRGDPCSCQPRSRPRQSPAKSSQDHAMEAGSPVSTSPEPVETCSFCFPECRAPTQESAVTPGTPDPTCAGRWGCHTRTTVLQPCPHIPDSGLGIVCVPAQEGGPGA

MFI [1]	MFI [2]	% Inhibition n=1 [3]	% Inhibition n=2 [3]	Avg. % Inhibition [3]	MFI [4]	MFI [5]	Kd [6]	Binder
132000 MFI	1890 MFI	68%	88%	78%	238000 MFI	109 MFI	–	33C7 (antibody, from a related filing, V domains shown) VH: EVQLLESGGALVQPGGSLRLSCAASGFTFSSYAMNWVRQAPGKGLEWVSAISVGGDTYYADSVKGRFTISRDNSKNTLYLHVNSLSAEDSAVYYCAKDQVTLVRGVWYYYGLDVWGQGTTVTVSS VL: VIVLIQSPLSLPVTPGEPASISCRSSQSLLHSNGNNYLDWYLQKPGQSPHLLISLGSNRTSGVPDRFSGSGSGTDFTLKISRVEAEDVGFYYCMQALQPPRRFGQGTKLEIKR
–	–	–	–	–	–	–	36.1 nM	11F12 (antibody, from a related filing, IgG1, V domains shown) VH: QVQLVESGGGVVQPGRSLRLSCAASGFTFSSYGLHWVRQAPGKGLEWVALISYDGSNKYYADSVKGRFTISRDNSKNTLYLQMNSLRAEDTAVYYCWYSSSWTPLDYWGQGTLVTVSS VL: DIQMTQSPSSLSASVGDRVTITCRASQGIRNDLGWYQQKPGKAPKRLIYAASSLQSGVPSRFSGSGSGTEFTLTISSLQPEDFATYYCLQYYSYPLTFGGGTKVEIKR
